From article PMC4787775, “Molecular basis for the substrate specificity and catalytic mechanism of thymine-7-hydroxylase in fungi” (Nucleic Acids Research, 2015) come the findings set out here.

Substitutions are numbered along the chain they refer to. In names and notes the source's numbering stands.

The target of series [1] is T1, NcT7H (thymine-7-hydroxylase) (Neurospora crassa, UniProt Q7RYZ9).
T1 construct: gene NCU06416; full length (residues 1-333), C-terminal His6-tag, pET-28a, expressed in E. coli BL21(DE3); Ni-NTA and gel filtration, tag removal not mentioned
The experiment in a line: isothermal titration calorimetry. In kind it is binding. The text has this: isothermal titration calorimetry on NcT7H (thymine-7-hydroxylase)

Substrate in series [2]: Cc1c[nH]c(=O)[nH]c1=O
The experiment in a line: purified protein. The note with it: 1 mM α-KG, 0.2 mM (NH4)2Fe(SO4)2, 0.2 mM ascorbic acid, 100 mM Hepes pH 7.5, 25 °C. In kind it is biochemical, Neurospora crassa.

Substrate in series [3]: O=c1[nH]cc(CO)c(=O)[nH]1
Put plainly: purified protein. The following applies: 1 mM α-KG, 0.2 mM (NH4)2Fe(SO4)2, 0.2 mM ascorbic acid, 100 mM Hepes pH 7.5, 25 °C.

Substrate in series [4]: O=Cc1c[nH]c(=O)[nH]c1=O
The experiment in a line: purified protein. The format is biochemical, Neurospora crassa. The note with it: 1 mM α-KG, 0.2 mM (NH4)2Fe(SO4)2, 0.2 mM ascorbic acid, 100 mM Hepes pH 7.5, 25 °C.

T1 sequence (Q7RYZ9 entry or part of it): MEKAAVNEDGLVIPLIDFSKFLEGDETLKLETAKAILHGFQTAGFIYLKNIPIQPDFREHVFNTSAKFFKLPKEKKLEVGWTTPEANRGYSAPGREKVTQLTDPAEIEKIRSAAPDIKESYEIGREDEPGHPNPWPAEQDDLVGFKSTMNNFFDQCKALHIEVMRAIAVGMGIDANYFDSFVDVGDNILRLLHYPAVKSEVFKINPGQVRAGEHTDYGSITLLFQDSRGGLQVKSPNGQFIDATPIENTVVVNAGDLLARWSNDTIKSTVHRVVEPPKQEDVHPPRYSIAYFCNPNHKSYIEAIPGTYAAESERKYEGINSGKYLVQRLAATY

The molecule `Cc1c[nH]c(=O)[nH]c1=O` [T] had a Kd in series [1] of 32 ± 5.24 µM.

The molecule `O=C(O)CCC(=O)C(=O)O` [α-KG] yielded a Kd in series [1] of 34.4 ± 6.63 µM.

For `O=c1[nH]cc(CO)c(=O)[nH]1` [5hmU], the affinity in series [1], expressed as Kd, was 30.5 ± 5.59 µM.

In the case of `O=C(O)CNC(=O)C(=O)O` [NOG], binding in series [1] was characterised by a dissociation constant (Kd) of 5.35 ± 1.26 µM.

In series [1], `O=Cc1c[nH]c(=O)[nH]c1=O` [5fU] yielded a Kd of 108 ± 13 µM. This Kd lies about 20-fold higher than the previous one.

B1: NcT7H (thymine-7-hydroxylase) (Neurospora crassa OR74A; R286A) (protein)
chain: MEKAAVNEDGLVIPLIDFSKFLEGDETLKLETAKAILHGFQTAGFIYLKNIPIQPDFREHVFNTSAKFFKLPKEKKLEVGWTTPEANRGYSAPGREKVTQLTDPAEIEKIRSAAPDIKESYEIGREDEPGHPNPWPAEQDDLVGFKSTMNNFFDQCKALHIEVMRAIAVGMGIDANYFDSFVDVGDNILRLLHYPAVKSEVFKINPGQVRAGEHTDYGSITLLFQDSRGGLQVKSPNGQFIDATPIENTVVVNAGDLLARWSNDTIKSTVHRVVEPPKQEDVHPPAYSIAYFCNPNHKSYIEAIPGTYAAESERKYEGINSGKYLVQRLAATY
notes: full length (residues 1-333), C-terminal His6-tag, pET-28a, expressed in E. coli BL21(DE3); Ni-NTA and gel filtration, tag removal not mentioned
Consider B1, for which, in the series “purified protein [2]”, the Km stood at 649 ± 74.1 µM, the kcat amounted to 0.405 ± 0.0215 s⁻¹ and the kcat/Km amounted to 617 M⁻¹ s⁻¹. Besides, in the series “purified protein [3]”, the Km is 950 ± 114 µM, the kcat turned out to be 0.141 s⁻¹ and the kcat/Km is 150 M⁻¹ s⁻¹.

B2: NcT7H (thymine-7-hydroxylase) (Neurospora crassa OR74A; Y217A) (protein)
chain: B1 chain with Y217A, A286R
notes: as for B1
Regarding B2, in the series “purified protein [2]”, the Km turned out to be 1500 ± 332 µM, the kcat worked out at 0.257 ± 0.0355 s⁻¹ and the kcat/Km is 167 M⁻¹ s⁻¹.

B3: NcT7H (thymine-7-hydroxylase) (Neurospora crassa OR74A; Y217F) (protein)
chain: B1 chain with Y217F, A286R
notes: as for B1
In the case of B3, in “purified protein [4]”, the Km worked out at 718 ± 213 µM, the kcat came to 0.237 ± 0.0352 s⁻¹ and the kcat/Km came out at 333 M⁻¹ s⁻¹. Moreover, in the series “purified protein [2]”, the Km was found to be 128 ± 18.5 µM, the kcat came to 0.542 ± 0.0228 s⁻¹ and the kcat/Km was 4230 M⁻¹ s⁻¹. Further, in “purified protein [3]”, the Km stood at 247 ± 35.2 µM, the kcat turned out to be 0.553 s⁻¹ and the kcat/Km stood at 2230 M⁻¹ s⁻¹.

B4: NcT7H (thymine-7-hydroxylase) (Neurospora crassa OR74A) (protein)
chain: B1 chain with A286R
notes: as for B1
Turning to B4, the Km in “purified protein [4]” worked out at 253 ± 32.2 µM; in the series “purified protein [2]”, 141 ± 13.4 µM; in “purified protein [3]” it was 178 ± 16.4 µM. Also, the kcat came out at 0.765 ± 0.0357 s⁻¹ in the series “purified protein [4]”, 0.417 ± 0.0123 s⁻¹ in the series “purified protein [2]” and 0.325 s⁻¹ in the series “purified protein [3]”. The kcat/Km was determined as 3020 M⁻¹ s⁻¹ in “purified protein [4]”, 2950 M⁻¹ s⁻¹ in “purified protein [2]” and 1830 M⁻¹ s⁻¹ in the series “purified protein [3]”.

B5: NcT7H (thymine-7-hydroxylase) (Neurospora crassa OR74A; N87A) (protein)
chain: B1 chain with N87A, A286R
notes: as for B1
Consider B5, for which, in the series “purified protein [2]”, the Km worked out at 638 ± 128 µM, the kcat came to 0.23 ± 0.022 s⁻¹ and the kcat/Km was found to be 367 M⁻¹ s⁻¹. In “purified protein [3]”, the Km came to 1065 ± 156 µM, the kcat came out at 0.0962 s⁻¹ and the kcat/Km was 83.3 M⁻¹ s⁻¹.

B6: NcT7H (thymine-7-hydroxylase) (Neurospora crassa OR74A; R190K) (protein)
chain: B1 chain with R190K, A286R
notes: as for B1
B6: in the series “purified protein [2]”, the Km was found to be 542 ± 64.7 µM, the kcat was 0.055 ± 0.003 s⁻¹ and the kcat/Km was found to be 100 M⁻¹ s⁻¹. Moreover, in the series “purified protein [3]”, the Km stood at 1016 ± 200 µM, the kcat worked out at 0.0353 s⁻¹ and the kcat/Km came out at 33.3 M⁻¹ s⁻¹.

As a reminder, the Kd is the equilibrium constant for the complex coming apart. A high value points to lower affinity. The Km is the substrate concentration at which the rate is half of its maximum. As usually defined, the kcat is the maximal rate divided by the concentration of active sites. The term kcat/Km denotes the second-order rate constant that governs catalysis at low substrate concentration.
